Data: patent US8029979B2, “Method for determining the substrate specificity of an enzyme” (JPT Peptide Technologies GmbH, priority 2001, dated 2011)

Target: T1, protein kinase A (Bos taurus, UniProt P00517)
T1 construct: purchased Sigma P26452 as printed
Test: Incubation of modified glass surface (960 spots) with protein kinase A (FIG. 7, Example 27)
Format: biochemical
Settings: aldehyde-functionalised glass, amino-oxy linkage, protein kinase A 10 U/mL, 30 min at 25° C.
Method: FIG. 7. A glass surface modified with the peptide Dpr(Aoa)-Leu-Arg-Arg-Ala-Ser-Leu-Gly-NH2 (see Example 22) was first pre-incubated for 10 minutes using 10 ml of 100 μM ATP solution in 50 mM of sodium phosphate buffer pH 7.5. […] After incubation for 30 min at 25° C. the phosphorylation of the corresponding peptides was detected using a FUJIFILM PhosphorImager (see Example 14). […] It is furthermore clear that the resolution of the PhosphorImager used here is sufficient to analyse more than 950 measurement points per biochip.
A glass surface modified with the peptide Dpr(Aoa)-Leu-Arg-Arg-Ala-Ser-Leu-Gly-NH2 (see Example 22) was incubated with 10 mL of 100 μM ATP in kinase buffer (50 mM tris-HCl, 150 mM NaCl, 30 mM MgCl2, 4 mM DTT, 2 mM EGTA, pH 7.5) for 10 minutes at room temperature. The glass surface was dried and a second unmodified glass surface of the same dimensions was then placed on the peptide-modified glass surface. […] Incubation was then carried out for 30 min at room temperature in an almost water-saturated atmosphere. […]
After drying the glass surface the quantity of radioactive phosphate incorporated in the glass-surface-bound peptides was determined using a PhosphorImager system (FLA-3000, FUJIFILM) (see FIG. 7).

## Dpr(Aoa)-Leu-Arg-Arg-Ala-Ser-Leu-Gly-NH2 ({Dpr(Aoa)}-LRRASLG-NH2)
  linking of the immobilised kinase substrate tolerated by protein kinase A: tolerated by the protein kinase A
